From patent US20240002479A1 (REGENTS OF THE UNIVERSITY OF MICHIGAN, published 2024)

B1: anti-DENV NS1 IgG2b mouse monoclonal antibody (mAb) 2B7 (antibody, V domains shown)
VH: EVQLQQSGPELVKPGASVKMSCKASGCTLTNCFMHWMKQKPGQDLEWIGYINPYNDMTKYSENFKGKATLTSDKSSSTAFMELSSLTSEDSAVYYCARGYLLRTGCFDYWGQGTTLTVSS
VL: NIVLTQSPASLAVSLGQRATISCRASESVDSYGYSFMHWYQQKPGQPPKVLIYLASNLESGVPARFSGSGSRTDFTLTIDPVEADDAATYYCQQNNENPLTFGAGTKLELKR
B2: 2B7 Fab (Fab, V domains shown)
VH: B1 VH
VL: NIVLTQSPASLAVSLGQRATISCRASESVDSYGYSFMHWYQQKPGQPPKVLIYLASNLESGVPARFSGSGSRTDFTLTIDPVEADDAATYYCQQNNENPLTFGAGTKLELK

Key:
[1] = biological target: T1, JEV NS1 (Japanese encephalitis virus NS1) (Japanese encephalitis virus, UniProt P0DOH7 795-1146); experiment: ELISA, 2B7 titrated on JEV NS1, OD450nm
T1 sequence: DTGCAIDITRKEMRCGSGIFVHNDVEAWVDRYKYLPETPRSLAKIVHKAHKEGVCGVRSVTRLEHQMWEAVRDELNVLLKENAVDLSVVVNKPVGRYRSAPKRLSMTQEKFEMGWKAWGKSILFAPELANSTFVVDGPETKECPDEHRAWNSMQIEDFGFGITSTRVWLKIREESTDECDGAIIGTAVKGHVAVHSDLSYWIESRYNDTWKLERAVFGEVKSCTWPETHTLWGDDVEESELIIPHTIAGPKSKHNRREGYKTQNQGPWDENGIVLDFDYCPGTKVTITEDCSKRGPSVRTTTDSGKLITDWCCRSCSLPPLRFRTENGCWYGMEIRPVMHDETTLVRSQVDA

[2] = biological target: T2, SLEV NS1 (Saint Louis encephalitis virus NS1) (Saint Louis encephalitis virus, UniProt P09732 790-1141); experiment: ELISA, 2B7 titrated on SLEV NS1, OD450nm
T2 sequence: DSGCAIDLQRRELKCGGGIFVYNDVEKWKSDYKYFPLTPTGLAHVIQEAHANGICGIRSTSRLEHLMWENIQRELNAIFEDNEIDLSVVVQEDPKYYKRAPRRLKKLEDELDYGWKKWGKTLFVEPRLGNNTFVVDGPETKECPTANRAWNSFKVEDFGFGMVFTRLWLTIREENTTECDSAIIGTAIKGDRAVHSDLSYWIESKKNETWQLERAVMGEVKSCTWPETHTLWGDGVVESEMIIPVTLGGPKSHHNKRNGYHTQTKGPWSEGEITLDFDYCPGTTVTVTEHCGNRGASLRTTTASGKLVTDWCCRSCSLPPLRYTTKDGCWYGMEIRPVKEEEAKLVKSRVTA

[3] = biological target: T3, USUV NS1 (Usutu virus NS1) (Usutu virus, UniProt Q5WPU5 794-1145); experiment: ELISA, 2B7 titrated on USUV NS1, OD450nm
T3 chain: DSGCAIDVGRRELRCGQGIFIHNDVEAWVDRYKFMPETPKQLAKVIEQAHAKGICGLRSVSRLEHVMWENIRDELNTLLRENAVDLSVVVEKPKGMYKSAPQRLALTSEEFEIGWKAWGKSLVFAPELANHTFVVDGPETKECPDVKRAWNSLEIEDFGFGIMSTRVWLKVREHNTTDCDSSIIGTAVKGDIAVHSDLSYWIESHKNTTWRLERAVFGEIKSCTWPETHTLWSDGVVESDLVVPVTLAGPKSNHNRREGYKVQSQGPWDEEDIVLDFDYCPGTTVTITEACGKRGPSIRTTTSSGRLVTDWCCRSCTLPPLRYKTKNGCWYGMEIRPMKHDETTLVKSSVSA

[4] = biological target: T4, WSLV NS1 (Wesselsbron virus NS1) (Wesselsbron virus, UniProt C5H431 771-1123); experiment: ELISA, 2B7 titrated on WSLV NS1, OD450nm
T4 sequence: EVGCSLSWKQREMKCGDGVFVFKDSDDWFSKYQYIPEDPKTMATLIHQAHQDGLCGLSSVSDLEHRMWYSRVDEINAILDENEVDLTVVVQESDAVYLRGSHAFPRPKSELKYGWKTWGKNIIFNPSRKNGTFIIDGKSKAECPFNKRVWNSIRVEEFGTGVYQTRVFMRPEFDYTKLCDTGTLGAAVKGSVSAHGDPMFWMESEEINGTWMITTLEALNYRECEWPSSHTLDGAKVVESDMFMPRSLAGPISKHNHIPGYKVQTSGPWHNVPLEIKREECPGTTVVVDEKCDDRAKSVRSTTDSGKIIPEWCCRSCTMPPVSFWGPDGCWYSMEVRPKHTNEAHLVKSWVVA

DENV1 NS1 [5] = biological target: T5, DENV1 NS1 (Dengue virus 1, UniProt P17763 776-1127); experiment: ELISA, 2B7 titrated on DENV1 NS1, OD450nm
T5 construct: also called dengue virus serotype 1 NS1
T5 chain: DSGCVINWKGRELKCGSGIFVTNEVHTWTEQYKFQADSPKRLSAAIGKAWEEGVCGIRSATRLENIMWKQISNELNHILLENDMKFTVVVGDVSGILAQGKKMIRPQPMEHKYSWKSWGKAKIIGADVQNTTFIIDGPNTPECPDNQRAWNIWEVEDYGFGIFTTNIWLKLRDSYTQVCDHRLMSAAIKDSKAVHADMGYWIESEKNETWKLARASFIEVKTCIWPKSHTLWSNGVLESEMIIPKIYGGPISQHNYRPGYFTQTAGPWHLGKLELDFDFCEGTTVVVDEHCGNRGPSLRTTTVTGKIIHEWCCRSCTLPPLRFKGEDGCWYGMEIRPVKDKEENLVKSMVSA

DENV3 NS1 = biological target: T6, DENV3 NS1 (Dengue virus 3, UniProt Q6YMS4 774-1125); experiment: ELISA, 2B7 titrated on DENV3 NS1, OD450nm
T6 sequence: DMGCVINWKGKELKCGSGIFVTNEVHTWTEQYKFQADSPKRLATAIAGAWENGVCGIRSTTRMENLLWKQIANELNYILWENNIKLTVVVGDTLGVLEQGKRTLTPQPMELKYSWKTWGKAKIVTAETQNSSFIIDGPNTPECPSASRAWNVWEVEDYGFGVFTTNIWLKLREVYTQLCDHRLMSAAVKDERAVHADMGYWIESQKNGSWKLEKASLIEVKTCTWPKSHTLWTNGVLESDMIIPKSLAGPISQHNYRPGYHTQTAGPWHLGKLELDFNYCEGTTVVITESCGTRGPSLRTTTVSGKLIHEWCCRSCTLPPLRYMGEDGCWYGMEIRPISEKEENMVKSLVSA

DENV4 NS1 = biological target: T7, DENV4 NS1 (Dengue virus 4, UniProt P09866 775-1126); experiment: ELISA, 2B7 titrated on DENV4 NS1, OD450nm
T7 sequence: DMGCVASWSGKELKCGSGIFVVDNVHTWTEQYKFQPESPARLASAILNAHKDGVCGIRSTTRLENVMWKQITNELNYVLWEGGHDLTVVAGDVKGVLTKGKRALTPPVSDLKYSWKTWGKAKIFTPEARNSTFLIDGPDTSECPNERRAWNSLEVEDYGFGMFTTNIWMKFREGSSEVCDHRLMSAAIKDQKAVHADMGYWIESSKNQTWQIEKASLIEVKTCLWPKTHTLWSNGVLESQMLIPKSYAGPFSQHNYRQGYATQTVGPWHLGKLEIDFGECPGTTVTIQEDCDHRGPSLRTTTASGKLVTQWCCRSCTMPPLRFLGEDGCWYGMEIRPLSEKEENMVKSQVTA

[6] = biological target: T8, recombinant NS1 wing domain (residues 38-151) (Dengue virus 2, UniProt P07564 813-926); experiment: direct ELISA on plates coated with recombinant NS1 domains, OD 405 nm
T8 sequence: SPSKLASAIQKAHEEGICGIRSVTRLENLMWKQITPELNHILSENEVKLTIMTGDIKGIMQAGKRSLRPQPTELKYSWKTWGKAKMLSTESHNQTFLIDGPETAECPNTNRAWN

DENV1 NS1 [7] = biological target: T5, DENV1 NS1; experiment: crystal structure 3.3 Å
[8] = biological target: T8, recombinant NS1 wing domain (residues …); experiment: BLI, domains on anti-His tips

Binder | binding result [1] | binding result [2] | binding result [3] | binding result [4] | binding result (DENV1 NS1 [5]) | binding result (DENV3 NS1) | binding result (DENV4 NS1) | binding result [6] | binding result (DENV1 NS1 [7]) | binding result [8]
B1 | binds | binds | binds | binds | binds | binds | binds | no binding | – | –
B2 | – | – | – | – | – | – | – | – | binds | no binding
